The experiment has as its target T1, Skp1-FBXW7 complex (human, UniProt P63208 1-149; Q969H0 263-707).
T1 construct: Skp1, truncated, residues 1-149; cDNA obtained from a HEK293T cell cDNA pool; human FBXW7, residues 263-707 (holds the WD40 domain); it was removed with TEV protease after Ni-NTA; also called purified FBXW7; FBXW7-Skp1 complex; source: E. coli Rosetta (DE3), co-expressed from a bicistronic plasmid (pMG950), purified (Ni-NTA, anion exchange, SEC); not shown: His6, N-terminal, cleaved
Nature of the experiment: fluorescence polarisation; direct titration: 50 nM CF-labeled CCNE peptide, increasing Skp1-FBXW7 complex; 20 mM Tris pH 8.0, 100 mM NaCl, 0.05% Brij35P, 2 mM TCEP; 384-well plates, 20 uL. Conditions: both partners purified. (In general: In fluorescence polarisation assays a small probe gives low polarisation when free and higher when bound to something large.)

Where no end group is shown, it is not given here. [ ]: non-standard residue; d: D form. pT = C[C@@H](OP(=O)(O)O)[C@H](N)C(=O)O; pS = N[C@@H](COP(=O)(O)O)C(=O)O; CF = carboxyfluorescein

T1 sequence (P63208 1-149, chain 1 of 2): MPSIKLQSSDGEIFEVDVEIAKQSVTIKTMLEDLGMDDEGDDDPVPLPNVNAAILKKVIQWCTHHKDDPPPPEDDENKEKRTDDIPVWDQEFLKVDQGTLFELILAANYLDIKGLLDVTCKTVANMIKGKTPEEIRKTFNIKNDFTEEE
T1 sequence (Q969H0 263-707, chain 2 of 2): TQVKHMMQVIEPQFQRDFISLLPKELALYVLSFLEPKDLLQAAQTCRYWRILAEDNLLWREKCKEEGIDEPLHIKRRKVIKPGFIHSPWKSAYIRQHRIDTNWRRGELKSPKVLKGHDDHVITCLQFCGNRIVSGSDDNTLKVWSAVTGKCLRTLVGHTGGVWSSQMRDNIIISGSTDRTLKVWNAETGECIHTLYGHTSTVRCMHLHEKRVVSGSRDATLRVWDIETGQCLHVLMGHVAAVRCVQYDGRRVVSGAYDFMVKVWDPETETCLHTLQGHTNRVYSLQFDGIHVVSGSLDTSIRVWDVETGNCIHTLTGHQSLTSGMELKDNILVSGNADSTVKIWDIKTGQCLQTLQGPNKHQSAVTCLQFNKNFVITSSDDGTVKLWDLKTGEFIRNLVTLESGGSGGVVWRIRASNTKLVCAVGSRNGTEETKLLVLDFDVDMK

B1: carboxyfluorescein (CF) labeled CCNE peptide (CF-PSGLLpTPPQpSGKKQ) (peptide)
peptide: {CF}-PSGLL[pT]PPQ[pS]GKKQ
notes: bisphosphorylated degron motif of cyclin E1 (CCNE1); also called fluorescently labeled CCNE peptide; CCNE1 motif; source: synthetic peptide (GenScript)
B1: the binding result is recorded as “binds”.

Source of the values: PMC8955265, “Systematic Discovery of FBXW7-Binding Phosphodegrons Highlights Mitogen-Activated Protein Kinases as Important Regulators of Intracellular Protein Levels” (International Journal of Molecular Sciences, 2022).
